We go through one molecule from US12497460B2, “Anti-MSR1 antibodies and methods of use thereof” (REGENERON PHARMACEUTICALS, INC., priority 2018, dated 2025).

Assay [1] has as its system Msr1^hu/hu ApoE^−/− mice. Put plainly: In vivo LPS-induced cytokine production in serum. Set-up: species or system mouse. The settings on record: 24 hours before in vivo LPS. The protocol: To examine the anti-inflammatory effect of the anti-MSR1 antibody-steroid conjugates, an ex-vivo and in vivo LPS-induced inflammatory immune response model was performed.
Generation of a mouse inflammatory immune response model. Mice homozygously expressing human MSR1 extracellular domain in place of the mouse MSR1 extracellular domain and with a homozygous deletion of the ApoE gene were utilized (resulting mice referred to as Msr1^hu/hu ApoE^−/− mice).
(§1) Assay protocol for in vivo LPS-induced responses. In in vivo LPS challenge experiments, mice were intraperitoneally administered with 10 μL/g of decreasing concentrations of anti-MSR1 antibody-steroid conjugates (H1H21234N-N297Q-LP13) and isotype control steroid conjugate (Isotype control-N297Q-LP13) at 24 hours prior to in vivo LPS challenge. PBS and free steroid P4 were intraperitoneally injected at 2 hours prior to in vivo LPS challenge. At 0 hour time point, three large drops of blood (volume ˜ 100 μL) were collected from the maxillary vein of each mouse into serum gel separator tubes. The tubes were centrifuged at 2200-2500 rpm for 15 minutes, and the serum was collected into 96-well plates for subsequent measurement of cytokines. At 18 hours post in vivo LPS challenge, the peritoneal cells were obtained from periotenal cavity as aforementioned for subsequent flow cytometry analysis.

Assay [2] relates to Msr1^hu/hu ApoE^−/− mice, peritoneal macrophages. The experiment in a line: LPS-mediated expression of CD80 on peritoneal macrophages (flow cytometry). Format: in vivo, mouse. To be noted: for LPS-mediated expression of CD80, pMΦ Cells: hMSR1+F4/80+CD11b+ peritoneal macrophages; for LPS-mediated expression of CD80, non-pMΦ Cells: hMSR1−F4/80−CD11b− cells. The protocol:
Assay protocol for ex vivo LPS-induced responses. In ex vivo LPS challenge experiments, mice were intraperitoneally administered with 10 μL/g of anti-MSR1 antibody-steroid conjugates (H1H21234N-N297Q-LP13), isotype control steroid conjugate (Isotype control-LP13), unconjugated anti-MSR1 antibody (H1H21234N-N297Q) and isotype control antibodies at different time points (24, 48, and 72 hours) prior to harvesting the peritoneal cells from peritoneal cavity. […] All mice were sacrificed at 0 hour time point and peritoneal cells were obtained from the peritoneum by the peritoneal lavage technique. In brief, 5 mL of ice cold 1×PBS (ThermoFisher Scientific, Cat #20012027) containing 2% BSA (Gibco, Cat #A9576) and 0.6 mM EDTA (ThermoFisher Scientific, Cat #15575020) were injected into the peritoneal cavity using 27 g needle. […] The resuspended cells were plated at 500,000 cells per well in 24-well tissues culture plates and incubated with or without 10 ng/mL of LPS for 18 hours.
as §1
Analysis of expression of activation markers on peritoneal macrophages after LPS ex vivo challenge. Upon collection of supernatants for cytokine analysis, the plates were washed twice with 1×PBS w/o Ca^++/Mg2^++ (ThermoFisher Scientific, Cat #14190144), and the adherent peritoneal cells were harvested by addition of 250-300 μL of cold Macrophage Detachment Solution DXF (PromoCell, Cat #C41330) for 40 minutes. The detached cells were collected into 50-mL tubes and centrifuged at 350×g for 15 minutes. After two washes with 1×PBS supplemented with 2 mM EDTA, the cells were resuspended in Cell Staining Buffer (Biolegend, #420201) and plated at 1×10^6 cells per well in a 96-well V bottom plate. Cells were centrifuged and cell pellets were resuspended in 100 μL of LIVE/DEAD Blue Fluorescent Reactive Dye (Life Technologies, Cat #L34962) diluted at 1:600 in 1×PBS to determine cell viability. Cells were incubated at room temperature for 20 minutes in dark. After one wash with 1×PBS, cells were incubated in Cell Staining Buffer containing 10 μg/mL of purified rat anti-mouse CD16/CD32 Fc Block (Clone: 2.4G2; BD Biosciences, Cat #553142) for 10 minutes at 4° C. The cells were washed once and incubated in the appropriate antibody mixture diluted in Brilliant Stain Buffer (BD Biosciences, Cat #566345) for 30 minutes at 4° C. in dark. The cells were subsequently washed with 1×PBS, resuspended in Cell Staining Buffer and acquired on FACS LSRFortessa X-20 flow cytometer (Becton Dickinson). Data were analyzed using FlowJo (Tree Star).
For orientation: In flow cytometry, cells or beads pass a laser one at a time.

Assay [3] has as its system Msr1^hu/hu ApoE^−/− mice. Put plainly: In vivo LPS-induced cytokine production in serum. More on the design: species or system mouse. The settings on record: i.p. dosing 24 hours before LPS challenge; 2 hours post LPS challenge.

B1: H1H21234N-N297Q-LP13 (conjugate)
VH: QVQLQESGPGLVKPSETLSLTCTVTGGSISRNYWSWIRQPPGKGLEWIGYIYYSGSIDYNPSLKSRVTISVDTSKNQFSLKLSSMTAADTAVYYCARDRWNWKYGMDVWGQGTTVIVSS
VL: EIVLTQSPGTLSLSPGERATLSCRASQTVRNNYLAWYHQKPGQAPRLLIYGASSRATGIPDRFSGSGSGTDFTLTISRLEPEDFTVYYCHQYGNSPWTFGQGTKMEIKR
Turning to B1, the “Cytokine IL-6 in serum” value is given as 33 ± 8.1 ng/mL in the assay on Msr1^hu/hu ApoE^−/− mice [1] (10.67 mg/kg), 15.34 ± 5.2 ng/mL with Msr1^hu/hu ApoE^−/− mice [1] (32.03 mg/kg) and 7.7 ± 3.1 ng/mL in the assay with Msr1^hu/hu ApoE^−/− mice [1] (96.08 mg/kg). The “Cytokine KC-GRO in serum” value is recorded as 13.3 ± 1.2 ng/mL with Msr1^hu/hu ApoE^−/− mice [1] (10.67 mg/kg), 10.6 ± 2.8 ng/mL in the assay with Msr1^hu/hu ApoE^−/− mice [1] (32.03 mg/kg) and 5.1 ± 1.5 ng/mL in the assay on Msr1^hu/hu ApoE^−/− mice [1] (96.08 mg/kg). In addition, the “Cytokine TNF-α in serum” value is 0.51 ± 0.08 ng/mL with Msr1^hu/hu ApoE^−/− mice [1] (10.67 mg/kg), 0.48 ± 0.18 ng/mL with Msr1^hu/hu ApoE^−/− mice [1] (32.03 mg/kg) and 0.42 ± 0.14 ng/mL in the assay on Msr1^hu/hu ApoE^−/− mice [1] (96.08 mg/kg). The “LPS-mediated expression of CD80, pMΦ Cells” value is 61.1 ± 1.3 % relative to PBS/LPS-treatment in assay [2] (administered 24 hours before), 58.7 ± 4.2 % relative to PBS/LPS-treatment in assay [2] (administered 48 hours before) and 63.9 ± 1.01 % relative to PBS/LPS-treatment in assay [2] (administered 72 hours before). Besides, the “LPS-mediated expression of CD80, non-pMΦ Cells” value in assay [2] (administered 24 hours before) was 95.5 ± 2.6 % relative to PBS/LPS-treatment; in assay [2] (administered 48 hours before), 99 ± 1.8 % relative to PBS/LPS-treatment; in assay [2] (administered 72 hours before) it was 102.3 ± 0.14 % relative to PBS/LPS-treatment. In assay [2] (in vivo administration), the “LPS-mediated expression of CD80 on hMSR1^+F4/80^+CD11b^+ peritoneal macrophages (pMΦ)” value is given as “significant reduction”. Also, in the assay with Msr1^hu/hu ApoE^−/− mice [3], the “effect on in vivo LPS-induced cytokine production in serum” value is listed as “efficacious in inhibiting in vivo LPS-induced cytokine production in a dose-dependent manner”.
